For orientation: Kd means a measure of binding affinity in units of concentration.

From paper PMC12502629, “The NagY antiterminator in Enterococcus faecalis: a novel regulatory mechanism and its impact on cell metabolism” (Microbiology Spectrum, 2025) come the findings set out here.

Data set [1] relates to RNase III (RNase III*);NagY (Enterococcus faecalis V19?;Enterococcus faecalis V19?). In words: spectral shift (Monolith X). As to conditions: RNase III* pre-incubated with NagY (8.5e-6 M), then RNA titrated; 1 mM MgCl2; ES-T buffer: 10 mM Tris pH 8.0, 40 mM NaCl, 10 mM KCl, 1 mM MgCl2, 0.05% Tween-80; room temperature (5 min pre-incubation); RNase III* stock 5e-8 M ….
In the next data set the target is T1, NagY antiterminator (Enterococcus faecalis, UniProt Q834W3 1-277).
T1 construct: NagY transcriptional antiterminator of Enterococcus faecalis, encoded by nagY (ef1515); source: E. coli M15 pRep4 pQE70-nagY, purified (HisTrap HP)
T1 sequence (looked up): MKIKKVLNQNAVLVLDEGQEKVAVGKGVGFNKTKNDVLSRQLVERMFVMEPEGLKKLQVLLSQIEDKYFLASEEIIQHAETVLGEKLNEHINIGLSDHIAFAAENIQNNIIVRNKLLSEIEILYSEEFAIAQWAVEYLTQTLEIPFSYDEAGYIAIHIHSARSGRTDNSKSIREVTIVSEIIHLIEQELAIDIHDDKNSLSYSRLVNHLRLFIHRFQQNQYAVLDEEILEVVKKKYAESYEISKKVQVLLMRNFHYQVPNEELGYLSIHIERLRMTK
Nature of the data set: other fluorescence titration; spectral shift (670 nm/650 nm) on Monolith X; RNase III* Cys-labeled at 50·10^-9 M, NagY serially diluted 5.2·10^-10 to 1.7·10^-5 M; ES-T buffer pH 8.0 (10 mM Tris, 40 mM NaCl, 10 mM KCl, 1 mM MgCl2, 0.05% Tween-80); independent triplicates. The note with it: both partners purified.

Regarding 5' nagY RNA, in data set [1], the equilibrium dissociation constant (Kd) was determined as 580 nM.

B1: RNase III (fluorescence-labeled, RNase III*) (enzyme, Enterococcus faecalis, UniProt Q82ZG1 1-230, looked up)
chain: MDNQLTTELKERYGIVFHDVNLLEQAFTHSSYVNEHRYLKLSDNERLEFLGDAVLELIVSQYLYLKFPELPEGKLTKMRAAIVREDSLAKFAKECHFDNYILLGKGEEASGGRTRASLLCDLFEAFLGALYLDQKVGAAKKFIEDVIFPKIDAGAFSHEMDHKTQLQEVLQRKGDVSIEYRLIKEEGPAHDRTFFTEVYMNGELIGLGQGKSKKLAEQDAAERALKSIPQ
modifications: Cys-labeled with Red-Maleimide 2nd Generation dye (degree of labeling 0.1 fluorescent tags per protein unit)
notes: RNase III of Enterococcus faecalis, a 26.2 kDa protein encoded by the rnc gene (ef3097); also called ribonuclease RNase III; rnc gene product; source: E. coli M15 pRep4 pQE30-rnc, purified (HisTrap HP)
B1: the dissociation constant (Kd) with NagY antiterminator was 2500 nM.
